From patent US20230183381A1 (VIRTUOSO BINCO, published 2023)

Target: T1, human CD38 extracellular domain (hCD38, recombinant, with AviTag) (human, UniProt P28907 43-300)
T1 construct: also called recombinant CD38; huCD38
Test: ELISA on human CD38 ECD, EC50 class

| EC50 [pM] | Binder |
| --- | --- |
| 20 to 100 | humanized h18E4-19 antibody (antibody, V domains shown, the control is hIgG1; also called hu18E4-19; Anti-CD38) VH: EVQLLESGGGLVQPGGSLRLSCAASGFSFNNYWIIWIRQAPGKGLEWVAAIYSPSGDIKYYADWAKGRFTVSKDNSKNTVYLQMNSLRAEDTAVYYCARELSGSSYEGYFESWGQGTLVTVSS VL: DIQLTQSPSTLSASVGDRVTITCRSSQSVYGHNWLAWYQQKPGKAPKLLMYRASNLASGVPSRFSGSGSGTEFTLTISSVQPDDFATYYCQGYYSGGSYAFGGGTKVEIK |
| > 500 | Anti-CD38 HC_Y100dA (antibody, V domains shown, Alanine variant of h18E4-19 with the parent VL) VH: EVQLLESGGGLVQPGGSLRLSCAASGFSFNNYWIIWIRQAPGKGLEWVAAIYSPSGDIKYYADWAKGRFTVSKDNSKNTVYLQMNSLRAEDTAVYYCARELSGSSYEGAFESWGQGTLVTVSS VL: DIQLTQSPSTLSASVGDRVTITCRSSQSVYGHNWLAWYQQKPGKAPKLLMYRASNLASGVPSRFSGSGSGTEFTLTISSVQPDDFATYYCQGYYSGGSYAFGGGTKVEIK |
| 20 to 100 | Anti-CD38 HC_S100A (antibody, V domains shown, Alanine variant of h18E4-19 with the parent VL) VH: EVQLLESGGGLVQPGGSLRLSCAASGFSFNNYWIIWIRQAPGKGLEWVAAIYSPSGDIKYYADWAKGRFTVSKDNSKNTVYLQMNSLRAEDTAVYYCARELSGSAYEGYFESWGQGTLVTVSS VL: DIQLTQSPSTLSASVGDRVTITCRSSQSVYGHNWLAWYQQKPGKAPKLLMYRASNLASGVPSRFSGSGSGTEFTLTISSVQPDDFATYYCQGYYSGGSYAFGGGTKVEIK |
| 20 to 100 | Anti-CD38 LC_G95A (antibody, V domains shown, Alanine variant of h18E4-19 with the parent VH) VH: EVQLLESGGGLVQPGGSLRLSCAASGFSFNNYWIIWIRQAPGKGLEWVAAIYSPSGDIKYYADWAKGRFTVSKDNSKNTVYLQMNSLRAEDTAVYYCARELSGSSYEGYFESWGQGTLVTVSS VL: DIQLTQSPSTLSASVGDRVTITCRSSQSVYGHNWLAWYQQKPGKAPKLLMYRASNLASGVPSRFSGSGSGTEFTLTISSVQPDDFATYYCQGYYSGASYAFGGGTKVEIK |
| 20 to 100 | Anti-CD38 HC_L96A (antibody, V domains shown, Alanine variant of h18E4-19 with the parent VL) VH: EVQLLESGGGLVQPGGSLRLSCAASGFSFNNYWIIWIRQAPGKGLEWVAAIYSPSGDIKYYADWAKGRFTVSKDNSKNTVYLQMNSLRAEDTAVYYCAREASGSSYEGYFESWGQGTLVTVSS VL: DIQLTQSPSTLSASVGDRVTITCRSSQSVYGHNWLAWYQQKPGKAPKLLMYRASNLASGVPSRFSGSGSGTEFTLTISSVQPDDFATYYCQGYYSGGSYAFGGGTKVEIK |
| 100 to 500 | Anti-CD38 HC_G100cA (antibody, V domains shown, Alanine variant of h18E4-19 with the parent VL) VH: EVQLLESGGGLVQPGGSLRLSCAASGFSFNNYWIIWIRQAPGKGLEWVAAIYSPSGDIKYYADWAKGRFTVSKDNSKNTVYLQMNSLRAEDTAVYYCARELSGSSYEAYFESWGQGTLVTVSS VL: DIQLTQSPSTLSASVGDRVTITCRSSQSVYGHNWLAWYQQKPGKAPKLLMYRASNLASGVPSRFSGSGSGTEFTLTISSVQPDDFATYYCQGYYSGGSYAFGGGTKVEIK |
| 20 to 100 | Anti-CD38 HC_G98A (antibody, V domains shown, Alanine variant of h18E4-19 with the parent VL) VH: EVQLLESGGGLVQPGGSLRLSCAASGFSFNNYWIIWIRQAPGKGLEWVAAIYSPSGDIKYYADWAKGRFTVSKDNSKNTVYLQMNSLRAEDTAVYYCARELSASSYEGYFESWGQGTLVTVSS VL: DIQLTQSPSTLSASVGDRVTITCRSSQSVYGHNWLAWYQQKPGKAPKLLMYRASNLASGVPSRFSGSGSGTEFTLTISSVQPDDFATYYCQGYYSGGSYAFGGGTKVEIK |
| 20 to 100 | Anti-CD38 HC_S99A (antibody, V domains shown, Alanine variant of h18E4-19 with the parent VL) VH: EVQLLESGGGLVQPGGSLRLSCAASGFSFNNYWIIWIRQAPGKGLEWVAAIYSPSGDIKYYADWAKGRFTVSKDNSKNTVYLQMNSLRAEDTAVYYCARELSGASYEGYFESWGQGTLVTVSS VL: DIQLTQSPSTLSASVGDRVTITCRSSQSVYGHNWLAWYQQKPGKAPKLLMYRASNLASGVPSRFSGSGSGTEFTLTISSVQPDDFATYYCQGYYSGGSYAFGGGTKVEIK |
| > 500 | Anti-CD38 LC_Y91A (antibody, V domains shown, Alanine variant of h18E4-19 with the parent VH) VH: EVQLLESGGGLVQPGGSLRLSCAASGFSFNNYWIIWIRQAPGKGLEWVAAIYSPSGDIKYYADWAKGRFTVSKDNSKNTVYLQMNSLRAEDTAVYYCARELSGSSYEGYFESWGQGTLVTVSS VL: DIQLTQSPSTLSASVGDRVTITCRSSQSVYGHNWLAWYQQKPGKAPKLLMYRASNLASGVPSRFSGSGSGTEFTLTISSVQPDDFATYYCQGAYSGGSYAFGGGTKVEIK |
| 100 to 500 | Anti-CD38 LC_G90A (antibody, V domains shown, Alanine variant of h18E4-19 with the parent VH) VH: EVQLLESGGGLVQPGGSLRLSCAASGFSFNNYWIIWIRQAPGKGLEWVAAIYSPSGDIKYYADWAKGRFTVSKDNSKNTVYLQMNSLRAEDTAVYYCARELSGSSYEGYFESWGQGTLVTVSS VL: DIQLTQSPSTLSASVGDRVTITCRSSQSVYGHNWLAWYQQKPGKAPKLLMYRASNLASGVPSRFSGSGSGTEFTLTISSVQPDDFATYYCQAYYSGGSYAFGGGTKVEIK |
| 100 to 500 | Anti-CD38 LC_S93A (antibody, V domains shown, Alanine variant of h18E4-19 with the parent VH) VH: EVQLLESGGGLVQPGGSLRLSCAASGFSFNNYWIIWIRQAPGKGLEWVAAIYSPSGDIKYYADWAKGRFTVSKDNSKNTVYLQMNSLRAEDTAVYYCARELSGSSYEGYFESWGQGTLVTVSS VL: DIQLTQSPSTLSASVGDRVTITCRSSQSVYGHNWLAWYQQKPGKAPKLLMYRASNLASGVPSRFSGSGSGTEFTLTISSVQPDDFATYYCQGYYAGGSYAFGGGTKVEIK |
| 20 to 100 | Anti-CD38 HC_S102A (antibody, V domains shown, Alanine variant of h18E4-19 with the parent VL) VH: EVQLLESGGGLVQPGGSLRLSCAASGFSFNNYWIIWIRQAPGKGLEWVAAIYSPSGDIKYYADWAKGRFTVSKDNSKNTVYLQMNSLRAEDTAVYYCARELSGSSYEGYFEAWGQGTLVTVSS VL: DIQLTQSPSTLSASVGDRVTITCRSSQSVYGHNWLAWYQQKPGKAPKLLMYRASNLASGVPSRFSGSGSGTEFTLTISSVQPDDFATYYCQGYYSGGSYAFGGGTKVEIK |
| 20 to 100 | Anti-CD38 LC_Q89A (antibody, V domains shown, Alanine variant of h18E4-19 with the parent VH; also called Anti-CD38med) VH: EVQLLESGGGLVQPGGSLRLSCAASGFSFNNYWIIWIRQAPGKGLEWVAAIYSPSGDIKYYADWAKGRFTVSKDNSKNTVYLQMNSLRAEDTAVYYCARELSGSSYEGYFESWGQGTLVTVSS VL: DIQLTQSPSTLSASVGDRVTITCRSSQSVYGHNWLAWYQQKPGKAPKLLMYRASNLASGVPSRFSGSGSGTEFTLTISSVQPDDFATYYCAGYYSGGSYAFGGGTKVEIK |
| > 500 | Anti-CD38 HC_E100bA (antibody, V domains shown, Alanine variant of h18E4-19 with the parent VL) VH: EVQLLESGGGLVQPGGSLRLSCAASGFSFNNYWIIWIRQAPGKGLEWVAAIYSPSGDIKYYADWAKGRFTVSKDNSKNTVYLQMNSLRAEDTAVYYCARELSGSSYAGYFESWGQGTLVTVSS VL: DIQLTQSPSTLSASVGDRVTITCRSSQSVYGHNWLAWYQQKPGKAPKLLMYRASNLASGVPSRFSGSGSGTEFTLTISSVQPDDFATYYCQGYYSGGSYAFGGGTKVEIK |
| 20 to 100 | Anti-CD38 LC_S95aA (antibody, V domains shown, Alanine variant of h18E4-19 with the parent VH) VH: EVQLLESGGGLVQPGGSLRLSCAASGFSFNNYWIIWIRQAPGKGLEWVAAIYSPSGDIKYYADWAKGRFTVSKDNSKNTVYLQMNSLRAEDTAVYYCARELSGSSYEGYFESWGQGTLVTVSS VL: DIQLTQSPSTLSASVGDRVTITCRSSQSVYGHNWLAWYQQKPGKAPKLLMYRASNLASGVPSRFSGSGSGTEFTLTISSVQPDDFATYYCQGYYSGGAYAFGGGTKVEIK |
| 20 to 100 | Anti-CD38 HC_S97A (antibody, V domains shown, Alanine variant of h18E4-19 with the parent VL) VH: EVQLLESGGGLVQPGGSLRLSCAASGFSFNNYWIIWIRQAPGKGLEWVAAIYSPSGDIKYYADWAKGRFTVSKDNSKNTVYLQMNSLRAEDTAVYYCARELAGSSYEGYFESWGQGTLVTVSS VL: DIQLTQSPSTLSASVGDRVTITCRSSQSVYGHNWLAWYQQKPGKAPKLLMYRASNLASGVPSRFSGSGSGTEFTLTISSVQPDDFATYYCQGYYSGGSYAFGGGTKVEIK |
| 20 to 100 | Anti-CD38 HC_F100eA (antibody, V domains shown, Alanine variant of h18E4-19 with the parent VL) VH: EVQLLESGGGLVQPGGSLRLSCAASGFSFNNYWIIWIRQAPGKGLEWVAAIYSPSGDIKYYADWAKGRFTVSKDNSKNTVYLQMNSLRAEDTAVYYCARELSGSSYEGYAESWGQGTLVTVSS VL: DIQLTQSPSTLSASVGDRVTITCRSSQSVYGHNWLAWYQQKPGKAPKLLMYRASNLASGVPSRFSGSGSGTEFTLTISSVQPDDFATYYCQGYYSGGSYAFGGGTKVEIK |
| 20 to 100 | Anti-CD38 HC_E101A (antibody, V domains shown, Alanine variant of h18E4-19 with the parent VL) VH: EVQLLESGGGLVQPGGSLRLSCAASGFSFNNYWIIWIRQAPGKGLEWVAAIYSPSGDIKYYADWAKGRFTVSKDNSKNTVYLQMNSLRAEDTAVYYCARELSGSSYEGYFASWGQGTLVTVSS VL: DIQLTQSPSTLSASVGDRVTITCRSSQSVYGHNWLAWYQQKPGKAPKLLMYRASNLASGVPSRFSGSGSGTEFTLTISSVQPDDFATYYCQGYYSGGSYAFGGGTKVEIK |
| > 500 | Anti-CD38 HC_E95A (antibody, V domains shown, Alanine variant of h18E4-19 with the parent VL) VH: EVQLLESGGGLVQPGGSLRLSCAASGFSFNNYWIIWIRQAPGKGLEWVAAIYSPSGDIKYYADWAKGRFTVSKDNSKNTVYLQMNSLRAEDTAVYYCARALSGSSYEGYFESWGQGTLVTVSS VL: DIQLTQSPSTLSASVGDRVTITCRSSQSVYGHNWLAWYQQKPGKAPKLLMYRASNLASGVPSRFSGSGSGTEFTLTISSVQPDDFATYYCQGYYSGGSYAFGGGTKVEIK |
| 20 to 100 | Anti-CD38 HC_Y100aA (antibody, V domains shown, Alanine variant of h18E4-19 with the parent VL) VH: EVQLLESGGGLVQPGGSLRLSCAASGFSFNNYWIIWIRQAPGKGLEWVAAIYSPSGDIKYYADWAKGRFTVSKDNSKNTVYLQMNSLRAEDTAVYYCARELSGSSAEGYFESWGQGTLVTVSS VL: DIQLTQSPSTLSASVGDRVTITCRSSQSVYGHNWLAWYQQKPGKAPKLLMYRASNLASGVPSRFSGSGSGTEFTLTISSVQPDDFATYYCQGYYSGGSYAFGGGTKVEIK |
| > 500 | Anti-CD38 LC_G94A (antibody, V domains shown, Alanine variant of h18E4-19 with the parent VH; also called Anti-CD38low) VH: EVQLLESGGGLVQPGGSLRLSCAASGFSFNNYWIIWIRQAPGKGLEWVAAIYSPSGDIKYYADWAKGRFTVSKDNSKNTVYLQMNSLRAEDTAVYYCARELSGSSYEGYFESWGQGTLVTVSS VL: DIQLTQSPSTLSASVGDRVTITCRSSQSVYGHNWLAWYQQKPGKAPKLLMYRASNLASGVPSRFSGSGSGTEFTLTISSVQPDDFATYYCQGYYSAGSYAFGGGTKVEIK |
